Reference: patent publication US20250282828A1, “PEPTIDES FOR THE TREATMENT OF RESPIRATORY INFECTIONS OF VIRAL ORIGIN” (CENTRO DE INGENIERÍA GENÉTICA Y BIOTECNOLOGÍA, priority 2020, published 2025)
Like-named read-outs stand apart in the source and are kept apart here. Positions of bridges follow the written chain, without caps; N, C: chain ends. Residues, ends and D or L forms follow the SMILES beside them. No end group written: not given here.

Assays:
[1] = tested on: SARS-CoV-2; test: microbe, parasite or virus in culture; conditions: Severe acute respiratory syndrome coronavirus 2, Vero C1008, read-out: IC50 Compound
[2] = tested on: SARS-CoV-2
[3] = tested on: SARS-CoV-2; conditions: 96 h, 100 μM
[4] = tested on: SARS-CoV-2; remark: listed apart in the source
[5] = tested on: viral proteins; test: BIACORE surface plasmon resonance interaction, all proteins evaluated; assay type: binding
[6] = target: T1, envelope protein of the Zika virus (ZIKV E) (Zika virus), Q32ZE1; test: SPR (BIACORE)
T1 chain: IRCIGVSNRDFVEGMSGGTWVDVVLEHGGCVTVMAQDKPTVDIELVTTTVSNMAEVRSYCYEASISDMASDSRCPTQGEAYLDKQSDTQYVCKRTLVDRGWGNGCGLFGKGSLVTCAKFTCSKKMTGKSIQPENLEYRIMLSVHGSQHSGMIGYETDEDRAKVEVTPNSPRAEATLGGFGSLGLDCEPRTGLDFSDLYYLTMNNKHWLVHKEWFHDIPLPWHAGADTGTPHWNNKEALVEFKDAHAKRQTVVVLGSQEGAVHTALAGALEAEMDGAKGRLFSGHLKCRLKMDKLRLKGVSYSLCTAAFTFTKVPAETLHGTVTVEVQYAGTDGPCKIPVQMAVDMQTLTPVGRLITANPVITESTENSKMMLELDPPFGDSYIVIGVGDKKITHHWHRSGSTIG

[7] = target: T2, nucleocapsid protein of the SARS-CoV-2 virus (N protein) (SARS-CoV-2), P0DTC9; test: SPR (BIACORE); Peptide SEQ ID NO: 2
[8] = target: T3, Dengue 2 virus capsid protein (Dengue virus 2), P29990; test: SPR (BIACORE); Peptide SEQ ID NO: 2
T3 chain: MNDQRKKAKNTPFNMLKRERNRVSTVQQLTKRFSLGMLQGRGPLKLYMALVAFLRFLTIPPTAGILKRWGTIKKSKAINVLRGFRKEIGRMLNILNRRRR

[9] = target: T2, nucleocapsid protein of the SARS-CoV-2 …; test: SPR (BIACORE)
[10] = target: T3, Dengue 2 virus capsid protein (Dengue …); test: SPR (BIACORE)
[11] = target: T2, nucleocapsid protein of the SARS-CoV-2 …; test: SPR (BIACORE); Peptide SEQ ID NO: 1
[12] = target: T3, Dengue 2 virus capsid protein (Dengue …); test: SPR (BIACORE); Peptide SEQ ID NO: 1
[13] = target: T4, non-structural protein 1 of the Dengue virus 2 (NS1-D2) (Dengue virus 2), P29990
T4 chain: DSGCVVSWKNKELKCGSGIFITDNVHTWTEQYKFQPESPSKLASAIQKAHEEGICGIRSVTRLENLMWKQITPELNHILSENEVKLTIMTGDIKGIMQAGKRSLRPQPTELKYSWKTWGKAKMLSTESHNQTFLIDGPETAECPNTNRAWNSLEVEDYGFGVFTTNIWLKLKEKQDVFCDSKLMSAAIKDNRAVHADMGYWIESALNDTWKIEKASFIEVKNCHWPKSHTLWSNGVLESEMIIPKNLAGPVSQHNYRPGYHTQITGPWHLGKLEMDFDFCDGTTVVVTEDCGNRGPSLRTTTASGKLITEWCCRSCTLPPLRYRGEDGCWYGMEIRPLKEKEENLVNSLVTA

[14] = target: T3, Dengue 2 virus capsid protein (Dengue …)
[15] = target: T1, envelope protein of the Zika virus …
[16] = target: T2, nucleocapsid protein of the SARS-CoV-2 …

## NC(=O)c1nc(F)c[nH]c1=O [Favipiravir]
[1]
  IC50: 65300 nM

## CCC(CC)COC(=O)[C@H](C)N[P@](=O)(OC[C@H]1O[C@@](C#N)(c2ccc3c(N)ncnn23)[C@H](O)[C@@H]1O)Oc1ccccc1 [Remdisivir]
[1]
  IC50: 2400 nM

## CSCC[C@@H]1NC(=O)[C@H](Cc2c[nH]c3ccccc23)NC(=O)[C@@H](NC(=O)[C@H](C)NC(=O)[C@H](CCC(N)=O)NC(=O)[C@@H]2CCCN2C(=O)[C@@H]2CCCN2C(=O)[C@H](CCCNC(=N)N)NC(=O)[C@H](CCCNC(=N)N)NC(=O)[C@H](CCCNC(=N)N)NC(=O)[C@H](CCC(N)=O)NC(=O)[C@H](CCCNC(=N)N)NC(=O)[C@H](CCCNC(=N)N)NC(=O)[C@H](CCCCN)NC(=O)[C@H](CCCCN)NC(=O)[C@H](CCCNC(=N)N)NC(=O)CN)CSSC[C@@H](C(=O)O)NC(=O)[C@H]([C@@H](C)O)NC(=O)CNC(=O)[C@H](CC(C)C)NC(=O)[C@H](Cc2c[nH]cn2)NC(=O)[C@H](CCCNC(=N)N)NC(=O)[C@@H]2CCCN2C(=O)[C@H](CO)NC1=O [Peptide SEQ ID NO: 23] (H-GRKKRRQRRRPPQACWMSPRHLGTC-OH; disulfide 15-25; N-terminus and C-terminus assumed)
[2]
  IC50: 3800 nM

## RVTQMNLNDRLASLADKV [SEQ ID NO: 22]
[3]
  Inhibition %: 20.2%
[4]
  inhibition of SARS-CoV-2 in primary cultures of human airway epithelium: ≤ 20%
[5]
  interaction with the proteins evaluated: did not interact

## NC(=O)c1ncn([C@@H]2O[C@H](CO)[C@@H](O)[C@H]2O)n1 [Ribavirin]
[1]
  IC50: 40200 nM

## N=C(N)c1ccc2cc(OC(=O)c3ccc(N=C(N)N)cc3)ccc2c1 [Nafamostat]
[1]
  IC50: 20100 nM

## RVTQMNLNDRLASLYDKV (modifications not checked) [Peptide SEQ ID NO: 2]
[6]
  Kd: 18200 nM
[7]
  Kd: 523 nM
[8]
  Kd: 754 nM

## NDRLASLYDKV (modifications not checked) [Peptide SEQ ID NO: 14]
[9]
  Kd: 1140 nM
[10]
  Kd: 5910 nM
[6]
  Kd: 3200 nM

## RVTQMNLNDRLASLYDKV (modifications not checked) [peptide identified in the Sequence Listing as SEQ ID NO: 1]
[11]
  Kd: 3.58 nM
[12]
  Kd: 1.67 nM
[13]
  Kd: 769 nM
  koff: 1.02e-05 s⁻¹
[14]
  Kd: 1.67 nM
  koff: 0.000413 s⁻¹
  kon: 247000 M⁻¹ s⁻¹
[15]
  Kd: 1590 nM
  koff: 0.00154 s⁻¹
  kon: 965 M⁻¹ s⁻¹
[6]
  Kd: 1590 nM
[16]
  Kd: 3.58 nM
  koff: 0.000972 s⁻¹
  kon: 271000 M⁻¹ s⁻¹

## NLNDRLASLYDKV (modifications not checked) [Peptide SEQ ID NO: 15]
[9]
  Kd: 7820 nM
[10]
  Kd: 1270 nM
[6]
  Kd: 62.4 nM
